The target of series [1] is T1, TrkH-TrkA complex (TrkHA) (Vibrio parahaemolyticus, UniProt Q87KD2).
T1 construct: gene VP3045; full-length TrkH with C-terminal TEV site and His10; full-length TrkA with N-terminal GST cut by TEV; each made in E. coli BL21(DE3) and mixed; for patch clamp both co-expressed from modified pET vectors in E. coli giant spheroplasts; TrkH dimer with TrkA tetramer; with Trk system potassium uptake protein TrkH
T1 sequence (Q87KD2 1-458): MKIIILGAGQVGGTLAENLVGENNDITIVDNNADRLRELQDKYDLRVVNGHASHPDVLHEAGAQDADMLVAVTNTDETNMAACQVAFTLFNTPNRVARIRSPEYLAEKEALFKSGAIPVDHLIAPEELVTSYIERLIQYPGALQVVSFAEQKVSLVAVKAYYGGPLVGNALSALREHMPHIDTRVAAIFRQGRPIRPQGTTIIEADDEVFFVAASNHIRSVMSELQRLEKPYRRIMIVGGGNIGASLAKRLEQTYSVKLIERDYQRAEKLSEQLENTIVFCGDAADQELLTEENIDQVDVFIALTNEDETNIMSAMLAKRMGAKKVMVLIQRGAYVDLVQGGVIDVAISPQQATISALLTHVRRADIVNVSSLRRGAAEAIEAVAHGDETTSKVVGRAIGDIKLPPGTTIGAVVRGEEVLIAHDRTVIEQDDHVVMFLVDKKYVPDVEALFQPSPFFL
T1 sequence (Q87TN7 1-485 partner): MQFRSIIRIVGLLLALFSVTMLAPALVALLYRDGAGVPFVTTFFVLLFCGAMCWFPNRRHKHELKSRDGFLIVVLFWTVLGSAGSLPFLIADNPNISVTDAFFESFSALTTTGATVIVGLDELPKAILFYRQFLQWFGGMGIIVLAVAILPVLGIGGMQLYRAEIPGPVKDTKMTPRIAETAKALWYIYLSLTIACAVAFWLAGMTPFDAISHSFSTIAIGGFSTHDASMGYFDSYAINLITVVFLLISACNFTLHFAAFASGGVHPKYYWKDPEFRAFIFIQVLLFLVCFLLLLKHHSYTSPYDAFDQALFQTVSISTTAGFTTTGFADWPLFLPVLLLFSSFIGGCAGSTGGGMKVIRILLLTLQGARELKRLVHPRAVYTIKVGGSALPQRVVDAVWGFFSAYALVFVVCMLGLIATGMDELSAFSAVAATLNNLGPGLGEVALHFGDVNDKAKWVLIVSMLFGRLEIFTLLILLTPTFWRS
Briefly: single-channel patch clamp, inside-out patches of E. coli giant spheroplasts. Type of series: biochemical. Conditions: 150 mM KCl, 10 mM HEPES pH 7.4, same wild-type value also cited to earlier work.

Series [2] concerns the target T1, TrkH-TrkA complex (TrkHA). Briefly: X-ray crystallography, […] A. Type of series: binding. Conditions: 10 mM ADP; pH 7.2; 20 °C; site: N2 domain of TrkA only.
Series [3] has as its target TrkH from Vibrio parahaemolyticus, wild type (Vibrio parahaemolyticus) (UniProt Q87TN7).
The target of series [4] is TrkA from Vibrio parahaemolyticus, wild type (Vibrio parahaemolyticus). Description: crystal structure; TrkH-TrkA complex crystallised in the presence of 10 mM ADP (TrkHA-ADP), 3.53 Å; 20 °C, magnesium acetate 100 mM, HEPES pH 7.2, PEG400 26%, 2-propanol 10%.
The target is the same in series [5]. Briefly: crystal structure; TrkH-TrkA complex crystallised in the presence of 10 mM ATPγS (TrkHA-ATPγS), 3.85 Å; 20 °C, MgCl2 50 mM, NH4H2PO4 50 mM, HEPES pH 7.3, PEG400 20%.
Series [6] has the same target. Briefly: cryo-EM structure; TrkH-TrkA complex frozen on grids in the presence of 10 mM ATP (TrkHA-ATP), overall 3.0 Å; 150 mM KCl, 20 mM HEPES pH 7.5, 5 mM β-mercaptoethanol, 3.5 mM DM.
For series [7], the target named is T1, TrkH-TrkA complex (TrkHA). Description: X-ray crystallography, […] A. The conditions noted are these: 10 mM ATPγS; MgCl2 50 mM; pH 7.3; 20 °C; sites: N1 and N2 domains of TrkA. It is filed as binding.
Series [8] concerns the molecule itself. Briefly: crystal structure; TrkH-TrkA complex crystallised in the presence of 10 mM ADP (TrkHA-ADP), 3.53 Å; 20 °C, magnesium acetate 100 mM, HEPES pH 7.2, PEG400 26%, 2-propanol 10%.

Data on five molecules can be found in article PMC6987127 (Nature Communications, 2020).

In the case of `Nc1ncnc2c1ncn2[C@@H]1O[C@H](COP(=O)(O)OP(=O)(O)OP(=O)(O)O)[C@@H](O)[C@H]1O` [ATP], the “Popen at 5 mM” value in series [1] (5 mM ATP, activator) came out at 0.87 ± 0.003.

On to `Nc1ncnc2c1ncn2[C@@H]1O[C@H](COP(=O)(O)OP(=O)(O)O)[C@@H](O)[C@H]1O` [ADP], for which the “X-ray crystallography, 3.53 A” value in series [2] is recorded as “each TrkA has a prominent non-protein density in the N2 domain in which we modeled”. Moreover, the “Popen at 5 mM” value in series [1] (5 mM ADP, closes channel) was found to be 0.02 ± 0.002.

What is called stoichiometry N is the number of molecules, sites or subunits per partner or assembly. In series [3], “TrkA from Vibrio parahaemolyticus, wild type (natural protein)” showed a single-channel open probability (Popen) of TrkHA wt, inside-out patches of E. coli spheroplasts, in ADP of 0.02; a single-channel open probability (Popen) of TrkHA wt, inside-out patches of E. coli spheroplasts, in ATP of 0.87; a single-channel open probability (Popen) of TrkHA wt, inside-out patches of E. coli spheroplasts, no ligand of 0.17. Besides, the stoichiometry N in series [4] was 4. Moreover, the stoichiometry N in series [5] worked out at 4. The stoichiometry N in series [6] was found to be 2.

For `Nc1ncnc2c1ncn2[C@@H]1O[C@H](COP(=O)(O)OP(=O)(O)OP(O)(O)=S)[C@@H](O)[C@H]1O` [ATPγS], the “X-ray crystallography, 3.85 A” value in series [7] is “ATPγS is found in both the N1 and N2 domains”.

B1: TrkH from Vibrio parahaemolyticus, wild type (natural protein, UniProt Q87TN7 1-485, looked up)
chain: MQFRSIIRIVGLLLALFSVTMLAPALVALLYRDGAGVPFVTTFFVLLFCGAMCWFPNRRHKHELKSRDGFLIVVLFWTVLGSAGSLPFLIADNPNISVTDAFFESFSALTTTGATVIVGLDELPKAILFYRQFLQWFGGMGIIVLAVAILPVLGIGGMQLYRAEIPGPVKDTKMTPRIAETAKALWYIYLSLTIACAVAFWLAGMTPFDAISHSFSTIAIGGFSTHDASMGYFDSYAINLITVVFLLISACNFTLHFAAFASGGVHPKYYWKDPEFRAFIFIQVLLFLVCFLLLLKHHSYTSPYDAFDQALFQTVSISTTAGFTTTGFADWPLFLPVLLLFSSFIGGCAGSTGGGMKVIRILLLTLQGARELKRLVHPRAVYTIKVGGSALPQRVVDAVWGFFSAYALVFVVCMLGLIATGMDELSAFSAVAATLNNLGPGLGEVALHFGDVNDKAKWVLIVSMLFGRLEIFTLLILLTPTFWRS
notes: TrkH, Vibrio parahaemolyticus, full-length gene in a modified pET vector; TEV protease site followed by a 10-polyhistidine tag at the C terminus; printed residue numbers run to 485; Homodimer in all three structures; also called TrkH (wt)
For the molecule B1, the “stoichiometry N” value in series [8] was determined as 2.
